Laboratory results from patent publication US20070065429A1 (Biogen, published 2007).

Columns and labels:
AP-Aβ = molecular target: T1, AP-Aβ (UniProt P05187 23-511; P05067 672-699); experiment: AP fusion binding to COS cells expressing NgR, saturation
T1 construct: Fusion of alkaline phosphatase and Aβ(1-28); The range 1-28 is Aβ numbering; also called AP-Aβ(1-28); soluble AP-Aβ(1-28)

Fluo-Aβ42 = molecular target: T2, Fluo-Aβ42 (UniProt P05067 672-713, 'Fluo' label (kind and position not stated)); experiment: Fluo-Aβ42 incubated 2 h at 4° C. with SKNMC cells expressing human NgR-1
T2 construct: also called fibrillogenic Aβ42 peptide

T1 sequence (P05187 other isoform, or with tags, fused parts or gaps): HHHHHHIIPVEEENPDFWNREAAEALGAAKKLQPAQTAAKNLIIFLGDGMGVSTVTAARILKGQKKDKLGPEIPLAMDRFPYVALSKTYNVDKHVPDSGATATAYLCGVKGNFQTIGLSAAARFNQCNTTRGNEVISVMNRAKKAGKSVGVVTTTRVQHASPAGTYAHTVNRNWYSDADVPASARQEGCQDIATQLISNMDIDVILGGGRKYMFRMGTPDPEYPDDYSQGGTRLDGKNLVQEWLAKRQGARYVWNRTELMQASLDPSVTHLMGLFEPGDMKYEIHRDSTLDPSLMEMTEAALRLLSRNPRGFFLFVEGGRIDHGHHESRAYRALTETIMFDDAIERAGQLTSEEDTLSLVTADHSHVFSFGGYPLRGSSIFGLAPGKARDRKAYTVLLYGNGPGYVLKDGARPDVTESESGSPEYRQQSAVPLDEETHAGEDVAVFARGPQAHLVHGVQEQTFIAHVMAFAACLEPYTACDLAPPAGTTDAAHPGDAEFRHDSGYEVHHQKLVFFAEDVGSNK

| Kd (AP-Aβ) [nM] | binding result (Fluo-Aβ42) | Binder |
| --- | --- | --- |
| 60 |  | NgR expressed in COS cells (receptor) CPGACVCYNEPKVTTSCPQQGLQAVPVGIPAASQRIFLHGNRISHVPAASFRACRNLTILWLHSNVLARIDAAAFTGLALLEQLDLSDNAQLRSVDPATFHGLGRLHTLHLDRCGLQELGPGLFRGLAALQYLYLQDNALQALPDDTFRDLGNLTHLFLHGNRISSVPERAFRGLHSLDRLLLHQNRVAHVHPHAFRDLGRLMTLYLFANNLSALPTEALAPLRALQYLRLNDNPWVCDCRARPLWAWLQKFRGSSSEVPCSLPQRLAGRDLKRLAANDLQGCAVATGPYHPIWTGRATDEEPLGLPKCCQPDAADKASVLEPGRPASAGNALKGRVPPGDSPPGNGSGPRHINDSPFGTLPGSAEPPLTAVRPEGSEPPGFPTSGPRRRPGCSRKNRTRSHCRLGQAGSGGGGTGDSEGS |
|  | binds | human NgR-1 expressed on human SKNMC cells (receptor, UniProt Q9BZR6 27-447, looked up, whole, on cells) CPGACVCYNEPKVTTSCPQQGLQAVPVGIPAASQRIFLHGNRISHVPAASFRACRNLTILWLHSNVLARIDAAAFTGLALLEQLDLSDNAQLRSVDPATFHGLGRLHTLHLDRCGLQELGPGLFRGLAALQYLYLQDNALQALPDDTFRDLGNLTHLFLHGNRISSVPERAFRGLHSLDRLLLHQNRVAHVHPHAFRDLGRLMTLYLFANNLSALPTEALAPLRALQYLRLNDNPWVCDCRARPLWAWLQKFRGSSSEVPCSLPQRLAGRDLKRLAANDLQGCAVATGPYHPIWTGRATDEEPLGLPKCCQPDAADKASVLEPGRPASAGNALKGRVPPGDSPPGNGSGPRHINDSPFGTLPGSAEPPLTAVRPEGSEPPGFPTSGPRRRPGCSRKNRTRSHCRLGQAGSGGGGTGDSEGS |
